The record followed here is paper PMC3084761.

The test concerns the target ECFP-FKBP38 fusion protein (pECFP-C1-FKBP38), Q14318. As to the kind of experiment: FRET or BRET; live-cell confocal FRET of ECFP (donor) and EYFP (acceptor) fusions in HEK293 cells transfected 48 h; acceptor/donor plasmid ratios 1:1 to 5:1; FRET efficiency against A/D ratio fitted to a 1:1 binding model. As to conditions: remark: other sources report otherwise. (In BRET a luciferase serves as donor, and the signal depends on an acceptor being close.)

Chain of ECFP-FKBP38 fusion protein (pECFP-C1-FKBP38), Q14318 (Q14318 whole entry, the tested form may be a part): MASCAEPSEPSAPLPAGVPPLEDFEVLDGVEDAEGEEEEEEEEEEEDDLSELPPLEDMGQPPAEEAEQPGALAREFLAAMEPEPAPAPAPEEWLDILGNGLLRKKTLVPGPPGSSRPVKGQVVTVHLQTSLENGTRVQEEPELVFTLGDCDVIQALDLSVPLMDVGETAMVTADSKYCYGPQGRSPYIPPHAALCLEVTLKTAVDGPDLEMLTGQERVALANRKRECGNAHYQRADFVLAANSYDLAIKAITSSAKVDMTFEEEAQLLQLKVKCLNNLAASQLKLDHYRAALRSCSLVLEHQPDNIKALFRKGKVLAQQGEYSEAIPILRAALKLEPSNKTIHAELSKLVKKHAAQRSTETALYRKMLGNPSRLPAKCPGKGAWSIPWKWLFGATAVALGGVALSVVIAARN

B1: PHD2-EYFP (PHD2 coding sequence in pEYFP-N1), Q9GZT9 1-426 (enzyme)
chain: MANDSGGPGGPSPSERDRQYCELCGKMENLLRCSRCRSSFYCCKEHQRQDWKKHKLVCQGSEGALGHGVGPHQHSGPAPPAAVPPPRAGAREPRKAAARRDNASGDAAKGKVKAKPPADPAAAASPCRAAAGGQGSAVAAEAEPGKEEPPARSSLFQEKANLYPPSNTPGDALSPGGGLRPNGQTKPLPALKLALEYIVPCMNKHGICVVDDFLGKETGQQIGDEVRALHDTGKFTDGQLVSQKSDSSKDIRGDKITWIEGKEPGCETIGLLMSSMDDLIRHCNGKLGSYKINGRTKAMVACYPGNGTGYVRHVDNPNGDGRCVTCIYYLNKDWDAKVSGGILRIFPEGKAQFADIEPKFDRLLFFWSDRRNPHEVQPAYATRYAITVWYFDADERARAKVKYLTGEKGVRVELNKPSDSVGKDVF
B1: the maximum FRET efficiency was over 20%.
